The target in assay [1] is T1, E. coli FabA (DH) (E. coli, UniProt P0A6Q3 2-172).
T1 construct: FabA, type II FAS dehydratase, E. coli
T1 sequence: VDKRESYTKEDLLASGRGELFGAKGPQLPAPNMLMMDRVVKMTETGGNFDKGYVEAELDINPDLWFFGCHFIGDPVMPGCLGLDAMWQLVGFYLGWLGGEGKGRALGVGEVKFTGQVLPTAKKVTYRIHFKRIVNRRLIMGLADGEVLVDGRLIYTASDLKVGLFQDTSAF
Put plainly: cross-linking. To be noted: both partners purified.

Assay [2] addresses T2, E. coli FabF (KS) (E. coli, UniProt P0AAI5 1-413).
T2 construct: FabF, type II FAS ketosynthase, E. coli
T2 sequence (looked up): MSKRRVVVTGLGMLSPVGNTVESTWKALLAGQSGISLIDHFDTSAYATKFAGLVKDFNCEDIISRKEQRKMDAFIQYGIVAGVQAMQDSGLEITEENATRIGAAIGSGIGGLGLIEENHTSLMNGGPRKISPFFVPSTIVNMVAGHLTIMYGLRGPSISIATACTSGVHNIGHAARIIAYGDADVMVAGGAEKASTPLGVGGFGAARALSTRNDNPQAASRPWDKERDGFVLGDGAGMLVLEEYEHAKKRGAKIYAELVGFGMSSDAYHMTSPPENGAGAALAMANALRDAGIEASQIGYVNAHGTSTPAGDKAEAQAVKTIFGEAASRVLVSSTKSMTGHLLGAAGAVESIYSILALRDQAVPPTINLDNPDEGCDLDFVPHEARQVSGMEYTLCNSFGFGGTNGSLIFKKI
The assay is described as follows: cross-linking. Conditions: both partners purified.

B1: E. coli crypto-AcpP (acyl carrier protein of the type II FAS loaded with a crosslinker) (natural protein)
chain: MSTIEERVKKIIGEQLGVKQEEVTNNASFVEDLGADSLDTVELVMALEEEFDTEIPDEEAEKITTVQAAIDYINGHQA
modifications: crosslinker 2, 3, 5, 6 or 8 loaded chemoenzymatically (crypto-AcpP)
notes: AcpP, acyl carrier protein of the type II fatty acid synthase, E. coli; also called E. coli ACP; source: crypto-AcpP purified by SEC
As to B1, the binding result in assay [1] and in assay [2] was “binds” throughout.

For the origin of these results see article PMC12370991, “Visualizing acyl carrier protein interactions within a crosslinked type I polyketide synthase” (Nature Communications, 2025).
